Laboratory results reported in patent publication US20250034266A1 (ZAI LAB SHANGHAI, published 2025).

What was measured:
human CCR8 [1] = biological target: T1, human CCR8 (human, UniProt P51685 1-355); assay: FACS, competition with AF647-human CCL1 on HEK293-human CCR8 cells
T1 construct: whole, on cells; also called hCCR8
Method: (§1) Antibodies were prepared with 3-fold serial dilution ranging from 200 nM to 0.01 nM in FACS buffer. Then, cells were washed by FACS buffer for three times after incubation. […] FlowJo software was used for analysis. Data was plotted as the logarithm of antibody concentration versus mean fluorescence signals. IC₅₀ values were determined in GraphPad Prism 8 (GraphPad Software) using a log(agonist) vs. response-Variable slope (4 parameters) curve fit.

human CCR8 [2] = biological target: T1, human CCR8; assay: FACS, competition with AF647-human CCL1 on CHO-K1-human CCR8 cells
Method: as §1

cynomolgus CCR8 = biological target: T2, cynomolgus CCR8 (cynomolgus, UniProt G7NYJ2 1-355); assay: FACS on HEK293-cynomolgus CCR8 cells
T2 construct: whole, on cells

human CCR8 [3] = biological target: T1, human CCR8; assay: FACS on HuT78 cells (endogenous human CCR8)
Method: HuT78 cells expressing endogenous human CCR8 were used for determining binding affinities of selected affinity matured anti-CCR8 antibodies. Briefly, a total of […] cells for each well were seeded in 96-well plates and washed with FACS buffer (DPBS containing […]) for once. […] Cells were incubated with 50 μL of diluted antibodies at 4° C. for 1 hour. After primary antibody incubation, cells were washed for 3 times by FACS buffer. Then, cells were stained by Alexa Fbu647 labeled anti-human IgG secondary antibody (Jackson ImmunoResearch, #109606170) at 1:600 dilution in FACS buffer for 0.5 hour at 4° C. After 3 times washed, flow cytometry (Sartourius, iQue3) was performed to measure the binding affinities of antibodies. […]

human CCR8 [4] = biological target: T1, human CCR8; assay: FACS on CHO-K1-human CCR8 cells
human CCR8 [5] = biological target: T1, human CCR8; assay: FACS, competition with CCL1 on CHO-K1-human CCR8 cells

T2 sequence (G7NYJ2 entry or part of it): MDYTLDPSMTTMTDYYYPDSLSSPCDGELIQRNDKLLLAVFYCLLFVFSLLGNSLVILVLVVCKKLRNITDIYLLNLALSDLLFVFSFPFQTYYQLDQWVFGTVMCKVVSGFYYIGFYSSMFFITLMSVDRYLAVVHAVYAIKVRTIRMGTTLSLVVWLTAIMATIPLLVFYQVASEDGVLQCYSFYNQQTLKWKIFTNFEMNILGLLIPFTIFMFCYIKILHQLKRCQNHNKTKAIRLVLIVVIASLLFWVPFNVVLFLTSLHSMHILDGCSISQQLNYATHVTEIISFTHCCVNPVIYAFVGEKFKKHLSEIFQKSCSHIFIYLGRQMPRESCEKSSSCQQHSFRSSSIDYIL
T1 sequence (P51685 whole entry): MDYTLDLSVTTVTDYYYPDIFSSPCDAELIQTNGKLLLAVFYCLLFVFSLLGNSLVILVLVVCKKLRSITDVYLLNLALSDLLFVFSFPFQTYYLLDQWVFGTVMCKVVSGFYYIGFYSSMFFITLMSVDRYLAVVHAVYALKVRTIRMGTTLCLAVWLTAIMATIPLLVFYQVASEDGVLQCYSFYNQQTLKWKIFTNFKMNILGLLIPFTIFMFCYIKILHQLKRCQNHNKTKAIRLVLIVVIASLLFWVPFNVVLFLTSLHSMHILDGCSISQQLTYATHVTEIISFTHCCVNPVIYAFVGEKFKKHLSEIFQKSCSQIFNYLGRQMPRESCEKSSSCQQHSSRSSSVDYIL

B1: 348E2D11 (antibody, V domains shown)
VH: QVQLVETGGGLVRPGNSLKLSCVTSGFSFSNYRMHWLRQPPGKRLEWIAVITVKSDNYGANYAESVKGRFTISRDDSKSSVYLQMNRLREEDTATYYCSSLGRVAYWGQGTLVTVSA
VL: DIVMTQSQKFMFTSVGDRVSVTCKASQNVDTNVVWYQQKPGQSPKALIYSASSRYSGVPDRFTGSGSGTDFTLTISNVQSEDLAEYFCQQHNSFPLTFGAGTKLELI
notes: purified murine hybridoma antibody
IC50 (human CCR8 [1]): 368 pM | Max Inhibition (%) (human CCR8 [1]): 100% | IC50 (human CCR8 [2]): 231 pM | Max Inhibition (%) (human CCR8 [2]): 95%

B2: Hu149-13 (antibody, human IgG1, V domains shown)
VH: EVQLVESGGGLVQPGGSLKLSCAASGFTFNTYAMNWVRQASGKGLEWVGRIRSKSNFYATAYAASVKGRFTISRDDSKNTAYLQMNSLKTEDTAVYYCTRGREYGRSYAMDYWGQGTLVTVSS
VL: DIVMTQSPLSLPVTPGEPASISCRSSKSLLHSNANTYLYWFLQKPGQSPQLLIYRMSNLASGVPDRFSGSGSGTDFTLKISRVEAEDVGVYYCMQHLEYPLTFGGGTKVELK
notes: human IgG1
EC50 (cynomolgus CCR8): 193 pM | Max MFI (cynomolgus CCR8): 4.37e+06 MFI | Max MFI (human CCR8 [3]): 39100 MFI | EC50 (human CCR8 [4]): 100 pM | Max MFI (human CCR8 [4]): 653000 MFI | IC50 (human CCR8 [5]): 84.1 pM | Max Inhibition (%) (human CCR8 [5]): 102%

B3: Hu149-16 (antibody, human IgG1, V domains shown)
VH: EVQLVESGGGLVQPGGSLKLSCAASGFTFNTYAMNWVRQASGKGLEWVGRIRSKSNFYATAYAASVKGRFTISRDDSKNTAYLQMNSLKTEDTAVYYCTRGRDYGSSYAMDYWGQGTLVTVSS
VL: DIVMTQSPLSLPVTPGEPASISCRSSKSLLHSNANTYLYWFLQKPGQSPQLLIYRMSNLASGVPDRFSGSGSGTDFTLKISRVEAEDVGVYYCMQHLKYPLTFGGGTKVELK
notes: human IgG1
EC50 (cynomolgus CCR8): 142 pM | Max MFI (cynomolgus CCR8): 3.8e+06 MFI | Max MFI (human CCR8 [3]): 228000 MFI | EC50 (human CCR8 [4]): 65.9 pM | Max MFI (human CCR8 [4]): 672000 MFI | IC50 (human CCR8 [5]): 114 pM | Max Inhibition (%) (human CCR8 [5]): 101%

B4: Hu149-19 (antibody, human IgG1, V domains shown)
VH: EVQLVESGGGLVQPGGSLKLSCAASGFTFNTYAMNWVRQASGKGLEWVGRIRSKSNFYATAYAASVKGRFTISRDDSKNTAYLQMNSLKTEDTAVYYCTRGREYGSSYAMDYWGQGTLVTVSS
VL: DIVMTQSPLSLPVTPGEPASISCRSSKSLLHSNANTYLYWFLQKPGQSPQLLIYRMSNLASGVPDRFSGSGSGTDFTLKISRVEAEDVGVYYCMQHLKYPLTFGGGTKVELK
notes: human IgG1
EC50 (cynomolgus CCR8): 214 pM | Max MFI (cynomolgus CCR8): 3.95e+06 MFI | Max MFI (human CCR8 [3]): 187000 MFI | EC50 (human CCR8 [4]): 161 pM | Max MFI (human CCR8 [4]): 666000 MFI | IC50 (human CCR8 [5]): 168 pM | Max Inhibition (%) (human CCR8 [5]): 100%

B5: Hu149-17 (antibody, human IgG1, V domains shown)
VH: EVQLVESGGGLVQPGGSLKLSCAASGFTFNTYAMNWVRQASGKGLEWVGRIRSKSNFYATAYAASVKGRFTISRDDSKNTAYLQMNSLKTEDTAVYYCTRGRDYGSSYAMDYWGQGTLVTVSS
VL: DIVMTQSPLSLPVTPGEPASISCRSSKSLLHSNANTYLYWFLQKPGQSPQLLIYRMSNLASGVPDRFSGSGSGTDFTLKISRVEAEDVGVYYCMQHLSYPLTFGGGTKVELK
notes: human IgG1
EC50 (cynomolgus CCR8): 123 pM | Max MFI (cynomolgus CCR8): 4.11e+06 MFI | Max MFI (human CCR8 [3]): 29600 MFI | EC50 (human CCR8 [4]): 75.5 pM | Max MFI (human CCR8 [4]): 645000 MFI | IC50 (human CCR8 [5]): 69.8 pM | Max Inhibition (%) (human CCR8 [5]): 100%

B6: Hu149-14 (antibody, human IgG1, V domains shown)
VH: EVQLVESGGGLVQPGGSLKLSCAASGFTFNTYAMNWVRQASGKGLEWVGRIRSKSNFYATAYAASVKGRFTISRDDSKNTAYLQMNSLKTEDTAVYYCTRGREYGSAYAMDYWGQGTLVTVSS
VL: DIVMTQSPLSLPVTPGEPASISCRSSKSLLHSNANTYLYWFLQKPGQSPQLLIYRMSNLASGVPDRFSGSGSGTDFTLKISRVEAEDVGVYYCMQHLEYPLTFGGGTKVELK
notes: human IgG1
EC50 (cynomolgus CCR8): 157 pM | Max MFI (cynomolgus CCR8): 4.42e+06 MFI | EC50 (human CCR8 [3]): 184 pM | Max MFI (human CCR8 [3]): 28600 MFI | EC50 (human CCR8 [4]): 62.6 pM | Max MFI (human CCR8 [4]): 663000 MFI | IC50 (human CCR8 [5]): 81.6 pM | Max Inhibition (%) (human CCR8 [5]): 100%

B7: Hu149-15 (antibody, human IgG1, V domains shown)
VH: EVQLVESGGGLVQPGGSLKLSCAASGFTFNTYAMNWVRQAPGKGLEWVGRIRSKSNFYATAYAASVKGRFTISRDDSKNTAYLQMNSLKTEDTAVYYCTRGRDYGSSYAMDYWGQGTLVTVSS
VL: DIVMTQSPLSLPVTPGEPASISCRSSKSLLHSNANTYLYWFLQKPGQSPQLLIYRMSNLASGVPDRFSGSGSGTDFTLKISRVEAEDVGVYYCMQHLEYPLTFGGGTKVELK
notes: human IgG1
EC50 (cynomolgus CCR8): 282 pM | Max MFI (cynomolgus CCR8): 3.93e+06 MFI | EC50 (human CCR8 [3]): 108 pM | Max MFI (human CCR8 [3]): 21300 MFI | EC50 (human CCR8 [4]): 128 pM | Max MFI (human CCR8 [4]): 627000 MFI | IC50 (human CCR8 [5]): 104 pM | Max Inhibition (%) (human CCR8 [5]): 99.3%

B8: Hu149-20 (antibody, human IgG1, V domains shown)
VH: EVQLVESGGGLVQPGGSLKLSCAASGFTFNTYAMNWVRQASGKGLEWVGRIRSKSNFYATAYAASVKGRFTISRDDSKNTAYLQMNSLKTEDTAVYYCTRGKEYGSSYAMDYWGQGTLVTVSS
VL: DIVMTQSPLSLPVTPGEPASISCRSSKSLLHSNANTYLYWFLQKPGQSPQLLIYRMSNLASGVPDRFSGSGSGTDFTLKISRVEAEDVGVYYCMQHLKYPLTFGGGTKVELK
notes: human IgG1
EC50 (cynomolgus CCR8): 158 pM | Max MFI (cynomolgus CCR8): 4.02e+06 MFI | Max MFI (human CCR8 [3]): 253000 MFI | EC50 (human CCR8 [4]): 129 pM | Max MFI (human CCR8 [4]): 751000 MFI | IC50 (human CCR8 [5]): 147 pM | Max Inhibition (%) (human CCR8 [5]): 100%

B9: 262C2G7 (antibody, V domains shown)
VH: DVHLQESGPGLVKPSQSLSLTCSVTGYSITSGYYWNWIRQFPGNKLEWMGYISYDGSNNYNPSLKNRISITRDISKNQFFLKLNSVTTEDTATYYCARQIGLRRGAMDYWGQGTSVTVSS
VL: DIQMTQSSSYLSVSLGGRVTITCKASDHINNWLAWYQQKPGNAPRLLISGSTSLKAGVASRFSGSGSGKDYTLTITSLQTEDVATYYCQQYWGIPFTFGGGTKLEIK
notes: as for B1
IC50 (human CCR8 [1]): 632 pM | Max Inhibition (%) (human CCR8 [1]): 86.1% | IC50 (human CCR8 [2]): 1570 pM | Max Inhibition (%) (human CCR8 [2]): 95.6%

B10: 191E12H8 (antibody, V domains shown)
VH: DVQLQESGPGLVKPSQSLSLTCSVTGYSITSGYYWNWIRQFPGNKLEWMGYISYDGSNNYNPSLKNRISITRDISKNQFFLKLNSVTTEDTATYYCARQIGLRRGAMDYWGQGTSVTVSS
VL: DIQMTQSSSYLSVSLGGRVTITCKASDHINTWLAWYQQKPGNAPRLLISGSTSLKAGVASRFSGSGSGKDYTLTITSLQTEDVATYYCQQYWGIPFTFGGGTKLEIK
notes: as for B1
IC50 (human CCR8 [1]): 934 pM | Max Inhibition (%) (human CCR8 [1]): 85.6% | IC50 (human CCR8 [2]): 13300 pM | Max Inhibition (%) (human CCR8 [2]): 89.7%

B11: 273H2G6 (antibody, V domains shown)
VH: DVQLQESGPGLVKPSQSLSLTCSVTGYSITSGYYWNWIRQFPGNKLEWMGYISYDGSNNYNPSLKNRISITRDISKNQFFLKLNSVTTEDTATYYCARQVGLRRGAMDYWGQGTSVTVSS
VL: DIQMTQSSSYLSVSLGGRVTITCKASDHINNWLAWYQQKPGNAPRLLISGSTSLKAGVASRFSGSGSGKDYTLSITSLQTEDVATYYCQQYWSIPYTFGGGTKLEIK
notes: as for B1
IC50 (human CCR8 [1]): 782 pM | Max Inhibition (%) (human CCR8 [1]): 85.8% | IC50 (human CCR8 [2]): 2480 pM | Max Inhibition (%) (human CCR8 [2]): 91.3%

B12: 234G9C12 (antibody, V domains shown)
VH: DVQLQESGPGLVKPSQSLSLTCSVTGYSITSGYYWNWIRQFPGNKLEWMGYTSYDGSNNYNPSFKNRISITRDISKNQFFLKLNSVTTEDTATYYCARQIGLRRGAMDHWGQGTSVTVSS
VL: DIQMTQSSSYLSVSLGGRVTITCKASDHINNWLAWYQQKPGNAPRLLISGSTSLRAGVASRFSGSGSGKDYTLTITSLQTEDVATYYCQQYWGIPFTFGGGTKLEIK
notes: as for B1
IC50 (human CCR8 [1]): 812 pM | Max Inhibition (%) (human CCR8 [1]): 94% | IC50 (human CCR8 [2]): 1340 pM | Max Inhibition (%) (human CCR8 [2]): 96.8%
